Assay results published in the supplement of paper PMC10567573.

B1: MMP1 (parent)
chain: FHGTRQYKFDPKTKRILTLQKANS
B2: SPACA3 (parent)
chain: FTSGFNAAALDYEADGSTNNGIFQ

Variants of: B1
Assay: protein stability index of a GFP-peptide fusion (GPS, HEK-293T) (PSI 1-6); higher = more stable
Settings: c terminus: a fixed tail appended
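Further: lentivirally expressed fusions sorted by FACS into six bins by GFP to DsRed ratio, PSI derived from sequencing read proportions per bin multiplied by bin number.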

Protein stability index of substitutions, site by site:
R5: M 2.3; I 2.21; S 1.72; Y 2.13; H 2.07; K 2.55; Q 1.83; N 1.98; F 1.7; T 1.68; P 2.32; L 2.2; W 2.45; G 1.88; E 2.02; A 1.8; D 2.38; C 1.79; V 2.04
G3: P 2.68; C 2.63; D 2.29; Y 1.96; T 2.1; H 2.23; R 1.6; M 1.78; E 2.61; I 1.78; V 2.3; S 1.54; N 2.77; K 1.93; F 1.58; A 2.02; W 2.02; Q 1.67; L 1.63
P11: S 1.78; G 1.66; E 1.67; T 2.43; K 1.83; H 1.98; L 1.52; D 2.01; F 1.07; M 1.83; N 1.93; W 2.19; V 1.8; R 1.88; A 2.31; Y 2.13; C 1.79; Q 2.29; I 2.57
Y7: I 1.94; S 2.74; L 2.57; C 1.97; N 2.46; R 2.4; G 1.77; W 3.02; H 2.18; V 2.27; K 2.55; F 1.75; D 2.38; Q 2.45; M 1.72; E 2.5; P 2.08; A 2.31; T 1.89
F9: V 1.58; P 2.13; Y 1.75; N 2.39; I 1.68; C 2.48; M 1.67; Q 1.6; R 2.39; L 2.05; W 2.27; D 2.27; T 1.55; K 2.17; S 2.08; A 1.74; G 2.24; E 1.76; H 1.98
T4: D 2.43; K 2.17; C 1.6; A 1.81; E 2.29; Q 2.95; G 1.78; F 3.12; M 1.8; R 2.06; W 3.19; I 2.13; Y 2.98; N 2.38; P 1.61; L 1.26; V 1.69; H 1.68; S 2.08
F1: I 3.12; T 3.4; E 3.91; W 2.35; Y 2.51; A 3; K 3.33; V 3.18; N 3.34; Q 3.32; C 2.95; M 3.13; D 3.65; G 3.44; H 3.12; R 3.31; P 3.17; S 3.43; L 3.05
K12: I 1.95; C 1.86; E 2.4; H 2.21; M 1.7; F 2.27; A 1.87; L 1.91; D 1.53; N 2.12; G 1.47
K8: F 2.76; Q 1.78; G 2.24; W 3.37; V 1.74; N 2.71; A 2.04; L 1.64; D 2.07; Y 2.22; E 2.21; I 2.49; P 1.71; S 2.52; R 2.65; H 1.76; C 2.73; T 2.5; M 2.63
Q6: E 2.12; C 1.9; S 1.67; I 2.39; H 4.5; A 2.15; T 1.6; G 1.61; R 1.5; W 2.63; P 1.46; K 1.92; M 1.82; Y 2.04; N 1.92; V 2.96; D 1.87; F 3.64; L 1.83
D10: T 2.03; S 2.36; M 2.18; K 1.83; W 1.77; G 2.15; V 1.42; I 2.14; H 1.95; A 1.88; N 1.22; R 1.62; Q 2.46; L 1.5; Y 2.01; C 1.49; P 1.72; E 1.7; F 2.45
H2: F 2.34; R 3.04; G 2.55; K 2.57; S 2.39; Q 2.19; W 2.29; T 2.04; M 2.53; I 2.47; E 3.03; Y 2.35; C 1.88; L 2.36; A 1.69; N 2.33; D 3.55; P 1.68; V 1.91

Variants of: B2
Assay: as above
Settings: c terminus: a fixed tail appended

Protein stability index, by site and new letter:
N19: H 2.52; T 1.84; K 1.63; C 2.31; I 1.79; E 2.23; G 2.03; M 2.21; P 2.21; V 1.76; F 2.24; A 1.67; D 2.38; W 1.55; R 1.66; Q 2.44; Y 1.83; L 1.78; S 2.38
N20: K 1.98; E 2.21; H 1.75; M 1.87; W 1.43; T 1.93; S 2.15; V 2; C 2.33; D 2.51; P 2.28; L 2.04; G 1.96; R 1.66; Y 2.19; I 1.9; Q 1.84; A 2.31; F 2.03
F23: D 2.5; C 1.9; I 2; A 2.1; R 2.16; V 2.11; K 2.48; E 2.28; G 2.54; Y 1.98; T 2.92; W 1.64; S 2.2; Q 2.36; P 2.42; N 2.4; H 2.42; M 2.55; L 2.08
G21: K 2.33; Y 1.75; E 2.28; H 1.98; L 2.06; V 1.98; A 1.91; T 2.02; M 1.51; I 1.51; Q 1.7; W 1.58; R 1.75; S 1.72; F 1.8; D 1.9; C 1.97; N 1.84; P 2.12
Q24: H 2.46; I 2.18; A 1.47; V 1.17; D 2.02; P 1.99; L 1.71; R 2.2; N 1.67; F 1.92; T 2.23; M 1.46; Y 1.74; E 2.33; G 2.36; S 1.85; C 1.93; K 1.87
T18: Y 2.02
I22: E 2.4; A 2.36; F 1.69; R 2.09; N 2.13; H 1.95; D 2.41; C 1.74; M 2.5; L 1.74; Q 2.13; S 1.86; P 1.94; W 2.15; V 1.69; T 2.06; G 2.25; Y 2.06; K 1.93
